Assay results reported in PMC6309870.

Molecular target: T1, HA-CEBPD (C/EBP delta, NF-IL6beta) (UniProt P49716 1-269)
T1 sequence: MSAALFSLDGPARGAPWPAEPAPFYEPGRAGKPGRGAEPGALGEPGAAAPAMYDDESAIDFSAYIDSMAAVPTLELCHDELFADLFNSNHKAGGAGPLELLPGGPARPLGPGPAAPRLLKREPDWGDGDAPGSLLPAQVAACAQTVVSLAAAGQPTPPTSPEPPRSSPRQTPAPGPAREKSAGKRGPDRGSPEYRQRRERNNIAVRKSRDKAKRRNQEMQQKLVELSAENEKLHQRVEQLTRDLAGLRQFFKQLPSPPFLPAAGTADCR
Experiment: EMSA, supershift

B1: PTX3 promoter site 1 (dsDNA)
DNA 1: TTTAATATTGTGCAACTTCCAC
DNA 2: GTGGAAGTTGCACAATATTAAA
- binding result: binds

B2: PTX3 promoter site 5 (dsDNA)
DNA 1: TAAAGGGTTGTGAAATAATAAC
DNA 2: GTTATTATTTCACAACCCTTTA
- binding result: binds
